# Results published in US20170298096A1 (CANIMGUIDE THERAPEUTICS, published 2017).
# No end group written: not given here.
# T1: His-tagged P3028 (human, also: His-tag, terminus and sequence not given here)
# T1 construct: in solution at 0.5 ug/mL over the peptide cards; found with anti-His-tag antibody and rabbit anti-mouse peroxidase (rampo); also called PGE73; not shown: His-tag
# T1 peptide: VFDEFKPLVEEPQNLIK
# Target: T1, His-tagged P3028
# Experiment: PEPSCAN chip ELISA, His-P3028 in solution;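 note: score is the raw OD at 405 nm from peroxidase colour with ABTS, imaged by CCD camera before and after staining, with wells showing air bubbles set to zero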
row,Binder,RAMPO Score [rampo score]
1,KKLDTFFVKLSLTTER [SEQ ID NO 373],494
2,KKLDTFFVKLSLVTER [SEQ ID NO 374],446
3,KKLDTFFVKLSLWTER [SEQ ID NO 375],430
4,KKLDTFFVKLSLFFER [SEQ ID NO 376],348
5,KKLDTFFVKLSLFGER [SEQ ID NO 377],343
6,KKLDTFFVKLSLFHER [SEQ ID NO 378],463
7,KKLDTFFVKLSLFIER [SEQ ID NO 379],375
8,KKLDTFFVKLSLFLER [SEQ ID NO 380],360
9,KKLDTFFVKLSLFMER [SEQ ID NO 381],501
10,KKLDTFFVKLSLFNER [SEQ ID NO 382],599
11,KKLDTFFVKLSLFPER [SEQ ID NO 383],551
12,KKLDTFFVKLSLFSER [SEQ ID NO 384],369
13,KKLDTFFVKLSLFVER [SEQ ID NO 385],380
14,KKLDTFFVKLSLFWER [SEQ ID NO 386],374
15,KKLDTFFVKLSLFTDR [SEQ ID NO 387],404
16,KKLDTFFVKLSLFTEF [SEQ ID NO 388],297
17,KKLDTFFVKLSLFTEK [SEQ ID NO 389],291
18,KKLDTFFVKLSLFTEN [SEQ ID NO 390],311
19,KKLDTFFVKLSLFTET [SEQ ID NO 392],292
20,KKLDTFFVKLSLFTEY [SEQ ID NO 393],311
21,KKLDTFIVKLSLFTER [SEQ ID NO 397],446
22,KKLDTSFVKLSLFTER [SEQ ID NO 401],432
23,KNLDTFFVKLSLFTER [SEQ ID NO 402],432
24,KKLDTFAVKLSLFTER [SEQ ID NO 404],426
25,KPLDTFFVKLSLFTER [SEQ ID NO 405],425
26,KRLDTFFVKLSLFTER [SEQ ID NO 407],417
27,KKLDTFCVKLSLFTER [SEQ ID NO 409],411
28,KKLDTQFVKLSLFTER [SEQ ID NO 410],410
29,KKLDTLFVKLSLFTER [SEQ ID NO 411],408
